# Results reported in US20080248043A1 (Amgen, published 2008).
# Substitutions are numbered along the chain they refer to.
# B1: 6B5 (antibody, V domains shown)
# VH: not shown
# VL: DIQMTQSPSSLSASVGDRVTITCRASQGIRSDLGWYQQRPGKTPKRLIYAASSLQSGVPSRFSGSGSGTEFTLTISSLQPEDFATYYCQQYNSYPLTFGGGTKVEIK
# B2: 6B8 (antibody, V domains shown)
# VH: QVQLVQSGAEVKKPGASVKVSCKASGYTFTSYGISWVRQAPGQGLEWMGWISAYNGNTNYAQKLQGRVTMTTDTSTSTAYMELRSLRSDDTAVYYCAVGRYLDYWGQGTLVTVSS
# VL: B1 VL with G28D, S31N, R39K, T43A, Q89L
# B3: 5E4 (antibody, V domains shown)
# VH: QVHLVQSGAEVKKPGASVKVSCKASGYTFTGYYVHWVRQAPGQGLEWMGWINPNSGGTNYAQKFQGRVTMTRDTSISTAYMELSRLRSDDTAVYFCAGGRYLDYWGQGTLVTVSS
# VL: B1 VL with S31N, R39K, T43A, Q89L, L96I, G100Q, K103R, V104L
# B4: 3A7 (antibody, V domains shown)
# VH: B2 VH
# VL: B1 VL with G28D, S31N, R39K, T43A, Q89L
# B5: 3H12 (antibody, V domains shown)
# VH: QVQLQESGPGLVKPSETLSLTCTVSDGSISSFYWSWIRQPPGKGLEWIGYIYYSGSTNYNPSLKSRVTISVDTSKNQFSLKLSSVTAADTAVYYCARDYDILTGYSNYYGMDVWGQGTTVTVSS
# VL: B1 VL with S31N, R39K, T43A, Q89L, Y91H, L96F, G100P, V104L, E105D
# B6: 1B5 (antibody, V domains shown)
# VH: QVQLVESGGGVVQPGRSLRLSCAASGFTFSSYGMHWVRQAPGKGLEWVAVIWYDGSNKYYADSVKGRFTISRDNSKNTLYLQMNSLRAEDTAVYYCARGDFYWFDPWGQGTLVTVSS
# VL: B1 VL
# B7: 5D3 (antibody, V domains shown)
# VH: B2 VH
# VL: B1 VL with G28D, S31N, R39K, T43A, Q89L
# B8: 5A7 (antibody, V domains shown)
# VH: B2 VH
# VL: B1 VL with G28D, S31N, R39K, T43A, Q89L
# B9: 3F3 (antibody, V domains shown)
# VH: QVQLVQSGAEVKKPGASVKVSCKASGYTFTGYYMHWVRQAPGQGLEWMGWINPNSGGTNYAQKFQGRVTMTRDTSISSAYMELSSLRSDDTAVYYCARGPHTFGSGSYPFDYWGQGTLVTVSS
# VL: B1 VL with K42N
# B10: 6C1 (antibody, V domains shown)
# VH: QVQLVQSGAEVKKPGASVKVSCKASGFPFTDYYMHWVRQAPGQGLEWMGWINSNSGGTNYAQKFQGRVTMTRDTSISTAYMELSRLRSDDTAVYYCARGPHSFGSGSYPFDYWGQGTLVTVSS
# VL: B1 VL
# B11: 4G2 (antibody, V domains shown)
# VH: B10 VH
# VL: B1 VL
# B12: 4A10 (antibody, V domains shown)
# VH: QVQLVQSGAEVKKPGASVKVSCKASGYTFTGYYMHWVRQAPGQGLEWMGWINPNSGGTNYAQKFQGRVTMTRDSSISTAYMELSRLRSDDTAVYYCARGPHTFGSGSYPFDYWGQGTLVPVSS
# VL: B1 VL with M4L
# B13: 5D6 (antibody, V domains shown)
# VH: B2 VH with S77N
# VL: B1 VL with G28D, S31N, R39K, T43A, Q89L
# B14: 5A5 (antibody, V domains shown)
# VH: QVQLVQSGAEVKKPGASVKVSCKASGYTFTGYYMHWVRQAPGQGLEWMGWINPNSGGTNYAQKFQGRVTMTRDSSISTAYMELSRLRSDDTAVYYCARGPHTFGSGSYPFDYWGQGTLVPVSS
# VL: B1 VL with M4L
# B15: 6C2 (antibody, V domains shown)
# VH: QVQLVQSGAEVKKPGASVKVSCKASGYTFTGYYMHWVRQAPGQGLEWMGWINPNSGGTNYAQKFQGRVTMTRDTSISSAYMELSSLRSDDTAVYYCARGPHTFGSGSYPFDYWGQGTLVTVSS
# VL: B1 VL with K42N
# B16: 4E2 (antibody, V domains shown)
# VH: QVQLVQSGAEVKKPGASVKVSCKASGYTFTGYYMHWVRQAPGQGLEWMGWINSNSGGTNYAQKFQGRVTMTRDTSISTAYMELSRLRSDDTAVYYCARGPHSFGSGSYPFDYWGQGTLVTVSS
# VL: B1 VL
# B17: 3C7 (antibody, V domains shown)
# VH: QVQLVESGGGVVQPGTSLRLSCAASGFTFSSYGIHWVRQAPGKGLEWVAVIWYDGSNKFYADSVKGRFTISRDNSKNTLYLQMNSLRAEDTAVYYCARDPLGYCSSTSCSYFDYWGQGTLVTVSS
# VL: DIQMTQSPSSVSASVGDRVTITCRASQGISNWLAWYQQKPGKAPKLLIYAASSLQSGVPSRFSGSGSGTDFTLTIRSLQPEDFATYYCQQANNFPLTFGGGTKVEIK
# B18: 6B1 (antibody, V domains shown)
# VH: B17 VH with Y60H
# VL: B17 VL with R76S
# Target: S protein of SARS-CoV Urbani strain (on virus) (SARS-CoV Urbani strain, UniProt P59594 14-1255)
# Test: cell-based or functional assay
row,Binder,Neutralizing titer 200TCID50 [µg/mL]
1,B1,3.12
2,B2,0.781
3,B3,12.5
4,B4,0.195
5,B5,3.12
6,B6,0.195
7,B7,0.195
8,B8,0.781
9,B9,0.781
10,B10,0.781
11,B11,0.781
12,B12,3.12
13,B13,0.195
14,B14,0.195
15,B15,0.781
16,B16,0.781
17,B17,12.5
18,B18,3.12
